Results: the supplement of paper PMC12042874
± gives the uncertainty stated by the source.

Test: amyloid nucleation score (Sup35N fusion, yeast selection) (log enrichment); library NNK3; higher = more nucleation; inactive = no reads after selection
Outline: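 For the nucleation score, DiMSum gave the log enrichment of output over input reads, centred on the mode score of non-aggregating sequences. Psi-negative yeast expressing Sup35N fused to peptides of 20 random codons were induced with 100 μM copper sulfate for 24 hours and grown 7 days at 30°C on medium lacking adenine and uracil. Input and output plasmid inserts were Illumina-sequenced, and sequences with under 100 input reads were excluded.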
In the case of NLDLWMQSCFHRVAVYS, the amyloid nucleation score is reported as “inactive”.
With NLDQHCRCVIGFAITYYVGY the amyloid nucleation score was “inactive”.
With NLENVLFRDRYQSSTCKLCK the amyloid nucleation score was “inactive”.
For NLGGAPVL, the amyloid nucleation score was “inactive”.
For NLGTTLYVEICNWRIVLYIV, the amyloid nucleation score was “inactive”.
In the case of NLGYALICQSRVGGTFLVNS, the amyloid nucleation score is reported as “inactive”.
With NLIWTVHLVVTSVISDLCVG the amyloid nucleation score was “inactive”.
In the case of NLKAM, the amyloid nucleation score is reported as “inactive”.
With NLKFRRFTGNMCSTPKVCLK the amyloid nucleation score was “inactive”.
NLLSLVFIRWGNYRRFKMFR showed an amyloid nucleation score of 0.77 ± 0.22.
In the case of NLLSSSFLPPGWRSLKLGSS, the amyloid nucleation score is reported as “inactive”.
In the case of NLMGQTSGCQCVNTACLKPC, the amyloid nucleation score is reported as “inactive”.
Substance NLNRSLVFFSCDYAGCDGCT has an amyloid nucleation score of 1.48 ± 0.077.
In the case of NLPTLRVVDILCLCFYRIPS, the amyloid nucleation score is reported as “inactive”.
For NLPVF, the amyloid nucleation score was “inactive”.
In the case of NLQNGDYITVWTEWEQEACR, the amyloid nucleation score is reported as “inactive”.
For NLRFIRGANSA, the amyloid nucleation score was “inactive”.
With NLRSISF the amyloid nucleation score was “inactive”.
For NLSLFWMWELGKFYHGDRTA, the amyloid nucleation score was 2.23 ± 0.066.
With NLVCQLLGRQRDPINPVVCW the amyloid nucleation score was “inactive”.
In the case of NLVSQK, the amyloid nucleation score is reported as “inactive”.
For NMFRARGCSDFFLACMNDSA, the amyloid nucleation score was “inactive”.
NMFVILRFVMHKIKMFNRF gave an amyloid nucleation score of 1.51 ± 0.079.
With NMNCCLKMSVYLYRLLVHM the amyloid nucleation score was “inactive”.
With NMNSWAMQWTICTHSTFVLS the amyloid nucleation score was “inactive”.
In the case of NMYSISTLHRKLADPVCSV, the amyloid nucleation score is reported as “inactive”.
With NNAVQLYFYRLDMSYA the amyloid nucleation score was “inactive”.
With NNFMYPELAPSARRCAWYCG the amyloid nucleation score was “inactive”.
In the case of NNPLLIRDLHLTKVDISAVC, the amyloid nucleation score is reported as “inactive”.
Substance NNSAM has an amyloid nucleation score of -0.178 ± 1.1.
With NNSTRLIWWCMVKMRYNHCE the amyloid nucleation score was “inactive”.
With NNVFERQFRHLNSVDGPIDN the amyloid nucleation score was “inactive”.
With NPIRGYLMYSPALSPLVG the amyloid nucleation score was “inactive”.
In the case of NPRNMTPSLVFTDWLS, the amyloid nucleation score is reported as “inactive”.
For NPVRSKWYKVCCDNVGVYMD, the amyloid nucleation score was “inactive”.
For NQWLCLHLCQR, the amyloid nucleation score was “inactive”.
With NQYLLCMLMWNARSGSRSMI the amyloid nucleation score was “inactive”.
For NRAGGICDKIRAQGYSYHSM, the amyloid nucleation score was 0.475 ± 0.72.
For NRAVHKSRWHRMRTFKDERR, the amyloid nucleation score was “inactive”.
With NRCTCAV the amyloid nucleation score was “inactive”.
With NRENFMVTLLSLWTCNTCQV the amyloid nucleation score was 2.46 ± 0.054.
With NREQLSSNKRNFASHRWTSV the amyloid nucleation score was “inactive”.
NRFWLLCDFLFVHTCV showed an amyloid nucleation score of 0.897 ± 0.2.
In the case of NRGFYQ, the amyloid nucleation score is reported as “inactive”.
In the case of NRGSYVFMNRSEPVCSWISK, the amyloid nucleation score is reported as 1.09 ± 0.1.
For NRMQVMLSVVRSSLFVWMQW, the amyloid nucleation score was “inactive”.
For NRNYVGPWTLKMGLVC, the amyloid nucleation score was “inactive”.
For NRPTAVSFCK, the amyloid nucleation score was “inactive”.
Work on NRSIIVIWWNSRSSSNSWVG yielded an amyloid nucleation score of 2.1 ± 0.072.
With NRTCNDLMTFYSWGSSR the amyloid nucleation score was “inactive”.
For NRTDHTLNCVEIFAWIWFNL, the amyloid nucleation score was “inactive”.
In the case of NRTMLFEEKYVG, the amyloid nucleation score is reported as “inactive”.
For NRTSLCKEDLVRVSFDGYLL, the amyloid nucleation score was “inactive”.
For NRVAYTAQCQIIFCVGGYCL, the amyloid nucleation score was 2.72 ± 0.069.
With NRVMSVLF the amyloid nucleation score was “inactive”.
In the case of NRVSFPRGSKFCTFL, the amyloid nucleation score is reported as “inactive”.
In the case of NRYRTYVCLKDKRRSFKSGM, the amyloid nucleation score is reported as “inactive”.
In the case of NSDNHYFQRTMTNFANGKGC, the amyloid nucleation score is reported as “inactive”.
For NSDVYVSFLSVCVFAVRCLL, the amyloid nucleation score was “inactive”.
With NSFIVVIYYRVRSYRYTD the amyloid nucleation score was “inactive”.
In the case of NSGAWLSMEMMPCRMSVYAC, the amyloid nucleation score is reported as “inactive”.
In the case of NSGGFSKDDGNGYKA, the amyloid nucleation score is reported as “inactive”.
For NSHLSKNGQWIPLSAPATTT, the amyloid nucleation score was “inactive”.
With NSNFFL the amyloid nucleation score was “inactive”.
For NSNLDSSVYSVILYGLGVWM, the amyloid nucleation score was 1.18 ± 0.094.
For NSVGFACKEFMHVTAQTHKM, the amyloid nucleation score was “inactive”.
With NSYFGMWVITGFFLASMCIR the amyloid nucleation score was “inactive”.
In the case of NTDVVCMLNWLLTW, the amyloid nucleation score is reported as “inactive”.
For NTFTPVFLTSKYSMRYGLIM, the amyloid nucleation score was “inactive”.
In the case of NTGLNFCRASLSWTLGLYSS, the amyloid nucleation score is reported as “inactive”.
For NTGVENGREVDYARGANRSP, the amyloid nucleation score was “inactive”.
With NTRMDNLTNAWRAQYALSP the amyloid nucleation score was “inactive”.
With NTVLATYRTNAVFGKTTHYN the amyloid nucleation score was “inactive”.
With NTWPTPSLWLVLNKTLRKTS the amyloid nucleation score was “inactive”.
For NTYVIVPWKLLTNFDEFPHR, the amyloid nucleation score was “inactive”.
In the case of NVASM, the amyloid nucleation score is reported as “inactive”.
In the case of NVGTS, the amyloid nucleation score is reported as “inactive”.
NVIMVFVLCCFWCEGTQKHV gave an amyloid nucleation score of 1.83 ± 0.056.
For NVIRGGQGLVGPAIMFRDGV, the amyloid nucleation score was “inactive”.
For NVLYLQLRPMNLCEANSEIG, the amyloid nucleation score was “inactive”.
In the case of NVMIDDVLARYYRVRRGLVG, the amyloid nucleation score is reported as “inactive”.
In the case of NVNEQSHPM, the amyloid nucleation score is reported as “inactive”.
For NVYIVFFNFKTQ, the amyloid nucleation score was 2.34 ± 0.058.
For NVYMRSYKIRSCMTFRTLAL, the amyloid nucleation score was “inactive”.
For NWDWADE, the amyloid nucleation score was “inactive”.
In the case of NWIYYTMWSL, the amyloid nucleation score is reported as 0.581 ± 0.17.
With NWLDWLGRPPRDIGAWNGSS the amyloid nucleation score was “inactive”.
For NWNIGPRKLCKWRCR, the amyloid nucleation score was “inactive”.
For NWTQSIFVGGQRDRLVISRT, the amyloid nucleation score was “inactive”.
In the case of NWYDSWRVFAQNKDCSLWA, the amyloid nucleation score is reported as “inactive”.
For NYEQCNSHSCMIFLFRTDYS, the amyloid nucleation score was “inactive”.
For NYFYRPYSEDSVITQMIVVV, the amyloid nucleation score was “inactive”.
With NYGFGRVSAFYHQLA the amyloid nucleation score was “inactive”.
In the case of NYGNPRRMVCSEYGWESLCK, the amyloid nucleation score is reported as “inactive”.
In the case of NYKRTLEESN, the amyloid nucleation score is reported as 1.17 ± 0.18.
With NYTVLYGNSLSFFRSHLCRV the amyloid nucleation score was “inactive”.
Work on NYVCGVIAVNVVMNSSNNWR yielded an amyloid nucleation score of 2.66 ± 0.051.
For NYVVSFYISSNFWYDVVNCD, the amyloid nucleation score was 0.294 ± 0.22.
For NYYINKSMVRSRWFCCLPLW, the amyloid nucleation score was 2.34 ± 0.067.
In the case of PAADHLAKRCSMICSSSFAL, the amyloid nucleation score is reported as “inactive”.
For PAGTICGCRHGRLWNGPSRW, the amyloid nucleation score was “inactive”.
In the case of PALMDLGYRYVSRNFDL, the amyloid nucleation score is reported as “inactive”.
With PAPHRIKRIL the amyloid nucleation score was “inactive”.
In the case of PCFLTNEDFYMKFTRN, the amyloid nucleation score is reported as “inactive”.
In the case of PCHHFFFA, the amyloid nucleation score is reported as “inactive”.
With PCLYLGIFARTKMHPTNDCM the amyloid nucleation score was -0.88 ± 1.1.
For PCPFILFYSEFTWSRY, the amyloid nucleation score was “inactive”.
In the case of PDDCVGRSD, the amyloid nucleation score is reported as “inactive”.
For PDFNLWRTEMLSYNGWK, the amyloid nucleation score was “inactive”.
For PDHEMGSHLLV, the amyloid nucleation score was “inactive”.
For PDHSHHCV, the amyloid nucleation score was “inactive”.
In the case of PDKWSPGAYVKWWVGTKVQM, the amyloid nucleation score is reported as “inactive”.
For PDRCFD, the amyloid nucleation score was “inactive”.
In the case of PENDRNMLLVSVIVPRYIAT, the amyloid nucleation score is reported as “inactive”.
Work on PETMCLGAKRFITGRETREL yielded an amyloid nucleation score of 0.588 ± 0.14.
For PFACAVAKNPHES, the amyloid nucleation score was “inactive”.
For PFCVCRLL, the amyloid nucleation score was “inactive”.
For PFENHSYVCSGSRYNGTLWE, the amyloid nucleation score was “inactive”.
For PFFDFSDINITEPE, the amyloid nucleation score was -0.306 ± 0.71.
PFGGRR gave an amyloid nucleation score of 0.013 ± 0.47.
For PFGWSVLGTGASGAEIQLVE, the amyloid nucleation score was “inactive”.
With PFHRIPISVSLGYAFGTRCS the amyloid nucleation score was “inactive”.
For PFLTTKIVQVAGDLVNMFYE, the amyloid nucleation score was 1.24 ± 0.16.
In the case of PFSSGQSVEYL, the amyloid nucleation score is reported as “inactive”.
In the case of PFSYDLRNFNSWQIGNGGLM, the amyloid nucleation score is reported as “inactive”.
With PFTTSYPDVQLTMKFNSWRN the amyloid nucleation score was 1.56 ± 0.13.
PFVSVSVCTSLKGCSR showed an amyloid nucleation score of 1.8 ± 0.1.
For PGHFLECRKW, the amyloid nucleation score was -0.096 ± 0.66.
With PGMISSQGSYTFRAWAVSLR the amyloid nucleation score was “inactive”.
With PGRMRVVTVMKMWLTALSLK the amyloid nucleation score was “inactive”.
With PGSASYSLVRGQDYYLTIYC the amyloid nucleation score was “inactive”.
In the case of PGSDWDMLIMKGMKKRYLDY, the amyloid nucleation score is reported as “inactive”.
With PGSYGHGGWNTEFGCQVAIW the amyloid nucleation score was -0.593 ± 1.9.
In the case of PGTIYVGCRLLIYGTNTADL, the amyloid nucleation score is reported as “inactive”.
For PHCVWDFLVRYGMDENRVKY, the amyloid nucleation score was “inactive”.
For PHHSRYAFYGNPTLAI, the amyloid nucleation score was “inactive”.
With PIAHFM the amyloid nucleation score was “inactive”.
For PIMAWIWWRASDPMQKRLVG, the amyloid nucleation score was “inactive”.
For PINETRSEESLVGSRGM, the amyloid nucleation score was “inactive”.
For PITDFTSNISNSRDPLQVRG, the amyloid nucleation score was “inactive”.
For PKCPCTWSRTYCVVLWLPRR, the amyloid nucleation score was “inactive”.
In the case of PKLSRSYVLSMMVTWRNSKV, the amyloid nucleation score is reported as “inactive”.
In the case of PLAFWTCCYCLTWNLRLSWQ, the amyloid nucleation score is reported as 1.6 ± 0.059.
PLHSWKQCALRRVSSNTSSG gave an amyloid nucleation score of 1.75 ± 0.093.
With PLKGDTVSYCGV the amyloid nucleation score was “inactive”.
With PLKTLFCSVLSCVIFLYLLM the amyloid nucleation score was “inactive”.
For PLNMSRCTLALTLFVISFGW, the amyloid nucleation score was “inactive”.
With PLVDPLGELYAATFCSGEYC the amyloid nucleation score was “inactive”.
For PLWAYKYVPGFYRVFKVCLM, the amyloid nucleation score was “inactive”.
With PLWSRCLYRLSAGGACSVWK the amyloid nucleation score was “inactive”.
For PMHAIIKLYM, the amyloid nucleation score was “inactive”.
With PNRVGAVPGG the amyloid nucleation score was “inactive”.
With PPCWLYDFVTNVNNWWYEHC the amyloid nucleation score was “inactive”.
With PPGLGYSMVFYSSVDMHMLS the amyloid nucleation score was “inactive”.
With PPRSSLFTFNIFKYNNLYNA the amyloid nucleation score was 2.72 ± 0.066.
For PQADLVRFAMCRRAMNLVPW, the amyloid nucleation score was “inactive”.
With PQLCESLELSEKRRTEDLVG the amyloid nucleation score was “inactive”.
For PQLLVSYYL, the amyloid nucleation score was “inactive”.
